Laboratory results: US20140357845A1

Tests used:
[1] = target: s-H1 Full-length R343Q (A/Brisbane/59/2007), trimeric form (influenza A virus H1N1), B4URD6; conditions: remark: other sources report otherwise
[2] = target: s-H1 Full-length R343Q (A/Brisbane/59/2007), monomeric form (influenza A virus H1N1), B4URD6; conditions: remark: other sources report otherwise

B1: CR6261 (antibody, V domains shown)
VH: EVQLVESGAEVKKPGSSVKVSCKASGGPFRSYAISWVRQAPGQGPEWMGGIIPIFGTTKYAPKFQGRVTITADDFAGTVYMELSSLRSEDTAMYYCAKHMGYQVRETMDVWGKGTTVTVSS
VL: QSVLTQPPSVSAAPGQKVTISCSGSSSNIGNDYVSWYQQLPGTAPKLLIYDNNKRPSGIPDRFSGSKSGTSATLGITGLQTGDEANYYCATWDRRPTAYVVFGGGTKLTVLG
[1]
  BLI response: 1.3 nm
[2]
  BLI response: 0.9 nm
